We go through four molecules from publication PMC3811995, “Zebavidin - An Avidin-Like Protein from Zebrafish” (PLoS ONE, 2013).

In general, Kd refers to the free concentration of one partner at which half of the binding sites on the other are occupied at equilibrium, for simple one-to-one binding. Read a high Kd as lower affinity. In general, stoichiometry N refers to the number of molecules, sites or subunits per partner or assembly.

Assay [1] has as its target T1, zebavidin (Danio rerio, UniProt E7F650).
T1 sequence (E7F650 31-154): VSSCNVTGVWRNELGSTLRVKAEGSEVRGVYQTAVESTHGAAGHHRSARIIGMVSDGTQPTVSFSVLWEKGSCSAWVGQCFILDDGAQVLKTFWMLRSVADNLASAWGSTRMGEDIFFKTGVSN
In words: crystal structure at […] Å; direct and competitive ITC ([…] °C); [3H]biotin dissociation; native MS; DSC. It is filed as binding. Further details: gene avd; first 30 amino acids of the ORF replaced with OmpA signal peptide from Bordetella avium (secreted core); homotetramer.

Assay [2] has as its target T1, zebavidin. In words: ITC ([…] °C). The format is binding. Also noted: gene avd; first 30 amino acids of the ORF replaced with OmpA signal peptide from Bordetella avium (secreted core).
The target in assay [3] is T1, zebavidin. The experiment in a line: fluorescence quenching titration ([…] °C). The format is binding. Further details: gene avd; first 30 amino acids of the ORF replaced with OmpA signal peptide from Bordetella avium (secreted core).
Assay [4] concerns the target zebavidin (recombinant core, expressed in E. coli) (zebrafish (Danio rerio)). In words: native MS; ESI FT-ICR, 10 µM zebavidin (monomer) in 10 mM ammonium acetate, pH 7, without biotin.
Assay [5] has the same target. The experiment in a line: native MS; ESI FT-ICR, 10 µM zebavidin in 500 mM ammonium acetate, in the absence and presence of 30 µM biotin.
Assay [6] shares this target. The experiment in a line: native MS; ESI FT-ICR, 10 µM zebavidin in 10 mM ammonium acetate, pH 7, with 30 µM biotin (3-fold molar excess).
For assay [7] the target is unchanged. In words: SEC; Superdex200 10/300GL, 4 °C, 50 mM sodium phosphate, 2 mM EDTA, pH 7 with 0, 100 or 650 mM NaCl, with and without biotin. In general terms: SEC sorts molecules by how far they enter the pores of the column.
Assay [8] has the same target. The experiment in a line: crystal structure; zebavidin in complex with biotin, 2.4 Å, space group P2(1)2(1)2, 16 monomers (four homotetramers) in the asymmetric unit.

“And” between values parts separate entries of the source, which are not always exact repeats. Identical values can stand only once.

As to `O=C(O)CCCC[C@@H]1SC[C@@H]2NC(=O)N[C@@H]21` [BTN, biotin], at zebavidin [1], the dissociation constant (Kd) is given as 4.8/4.4 x10^-9 M.
Take `C[C@@H]1NC(=O)N[C@@H]1CCCCCC(=O)O` [desthiobiotin]: the Kd at zebavidin [2] was 660/700 x10^-9 M.
Regarding ArcDia BF560, the Kd at zebavidin [3] is 140 nM.
With “zebavidin (recombinant core, expressed in E. coli) (natural protein)”, the stoichiometry N in assay [4] was 2 and 4; in assay [5], 4; in assay [6], 4; in assay [7], 4; in assay [8] it was 4.
